These are literature values, as cited in PMC6963778.

Usually Kd stands for the free concentration of one partner at which half of the binding sites on the other are occupied at equilibrium, for simple one-to-one binding.

This series deals with RNF4 (Homo sapiens) (UniProt P78317).

As to RNF4 (from UniProt P78317), the Kd was 180 nM.
